Each block holds one sequence with its values, some of them ahead of it.
Assays:
[1] = target: HLA-B*15:01; experiment: IEDB peptide-MHC binding, purified MHC/direct/fluorescence; filed as Kd, often an IC50 or EC50 that approximates it; ≥ and ≤ were set here for values at or beyond the usual limits of such assays
[2] = target: HLA-A*01:01; experiment: as above
[3] = target: HLA-A*02:01; experiment: IEDB peptide-MHC binding, purified MHC/competitive/fluorescence; filed as Kd, often an IC50 or EC50 that approximates it; ≥ and ≤ were set here for values at or beyond the usual limits of such assays
[4] = target: HLA-B*07:02; experiment: IEDB peptide-MHC binding, purified MHC/direct/fluorescence; filed as Kd, often an IC50 or EC50 that approximates it; ≥ and ≤ were set here for values at or beyond the usual limits of such assays
[5] = target: HLA-A*26:01; experiment: IEDB peptide-MHC binding, purified MHC/competitive/radioactivity; filed as Kd, often an IC50 or EC50 that approximates it; ≥ and ≤ were set here for values at or beyond the usual limits of such assays
[6] = target: HLA-A*01:01; experiment: as above; details: source organism: Dengue virus 2 Jamaica/1409/1983
[7] = target: HLA-B*44:02; experiment: as above; details: source organism: Dengue virus 2 Jamaica/1409/1983
[8] = target: HLA-B*44:03; experiment: as above
[9] = target: HLA-A*24:02; experiment: as above; details: source organism: Dengue virus 1 Brazil/97-11/1997
[10] = target: HLA-A*69:01; experiment: IEDB peptide-MHC binding, purified MHC/direct/fluorescence; filed as Kd, often an IC50 or EC50 that approximates it; ≥ and ≤ were set here for values at or beyond the usual limits of such assays
[11] = target: HLA-A*02:01; experiment: as above
[12] = target: HLA-A*02:01; experiment: IEDB peptide-MHC binding, purified MHC/competitive/fluorescence; ≥ and ≤ were set here for values at or beyond the usual limits of such assays; details: source organism: Zaire ebolavirus
[13] = target: HLA-B*27:05; experiment: IEDB peptide-MHC binding, purified MHC/direct/fluorescence; filed as Kd, often an IC50 or EC50 that approximates it; ≥ and ≤ were set here for values at or beyond the usual limits of such assays; details: source organism: Mycobacterium tuberculosis
[14] = target: HLA-A*30:01; experiment: IEDB peptide-MHC binding, purified MHC/competitive/radioactivity; filed as Kd, often an IC50 or EC50 that approximates it; ≥ and ≤ were set here for values at or beyond the usual limits of such assays
[15] = source organism: Dengue virus 4 Philippines/H241/1956
[16] = source organism: Dengue virus 2 Jamaica/1409/1983
[17] = source organism: Dengue virus 3 Sri Lanka/1266/2000
[18] = source organism: Bacillus thuringiensis
[19] = source organism: Oligoflexia bacterium
[20] = source organism: Cryptosporidium hominis
[21] = source organism: Orthohantavirus hantanense

Sequence: ALTAGAGAY
Kd ([1]; source organism: Mycobacterium tuberculosis str. Haarlem): 450 nM

Sequence: ASLIPDATY
Kd ([2]; source organism: Mammarenavirus lassaense): 17100 nM

Sequence: DIRTLLPILL
Kd ([3]; source organism: Variola virus): 737 nM

Sequence: DPNPQEVVL
Kd ([4]; source organism: Human immunodeficiency virus 1): ≥ 30700 nM

Sequence: DVRNDMISY
Kd [5, 15]: 431 nM

Sequence: EAEPPFGDSY
Kd [5, 16]: 1300 nM | Kd [6]: 1770 nM

Sequence: EEEEAGVLW
Kd [7]: 84.7 nM | Kd [8, 16]: 162 nM

Sequence: EEFWKLVDR
Kd [8, 17]: 3110 nM

Sequence: EEYVDYMPVM
Kd [8, 15]: 869 nM

Sequence: EFFLMVLLI
Kd [9]: ≥ 40100 nM

Sequence: EIVNLLDNKV
Kd ([3]; source organism: Vaccinia virus Copenhagen): ≥ 20000 nM

Sequence: ELGGGFGTL
Kd [10, 18]: 680 nM | Kd [11, 18]: 7000 nM

Sequence: ELIDGISLG
Kd ([5]; source organism: Dengue virus 4 Dominica/814669/1981): 472 nM

Sequence: ELITEQMAPH
Kd [5, 15]: 6060 nM

Sequence: EMFGGTPAV
Kd ([11]; source organism: Mycobacterium tuberculosis): 2.1 nM

Sequence: ENSSAMVQV
IC50 [12]: ≥ 277000 nM

Kd ([10]; source organism: Homo sapiens): 2890 nM | Kd ([2]; source organism: Homo sapiens): 16.3 nM
Sequence: ETEQPTLDY

Sequence: ETLETLLLLT
Kd [5, 16]: 17400 nM

Sequence: ETLGEKWKNR
Kd ([5]; source organism: Dengue virus 2 Peru/IQT2913/1996): 14600 nM

Sequence: ETLGEKWKSR
Kd [5, 16]: 14300 nM

Kd [10, 19]: 460 nM | Kd [11, 19]: 18000 nM
Sequence: EYSGGLHGV

Sequence: FQWSDDPFI
Kd [10, 20]: ≥ 20000 nM | Kd [11, 20]: 7.3 nM

Sequence: FRWDYIPPT
Kd [13]: 332 nM

Sequence: GAAGARGAL
Kd ([4]; source organism: Hepacivirus hominis): 12.8 nM

Sequence: GELCEDTMTY
Kd ([8]; source organism: Dengue virus 1 Brazil/97-11/1997): 25 nM

Sequence: GGSLVRCPLS
Kd [14, 15]: 2430 nM

Sequence: GIFPYSIPAT
Kd [14, 17]: ≥ 70400 nM

Sequence: GLQADAPHL
Kd [10, 21]: ≥ 20000 nM | Kd [11, 21]: 104 nM

Sequence: GLVRALTAF
Kd ([1]; source organism: Mycobacterium tuberculosis variant bovis BCG str. Pasteur 1173P2): 255 nM

Source: the Immune Epitope Database (IEDB)
